Results reported in paper doi:10.1101/2025.08.22.671756.

Molecular target: Drosophila melanogaster insulin receptor ectodomain (dmIR-ECD) (Drosophila melanogaster) (UniProt P09208)
Assay: cryo-EM structure

Sequence of Drosophila melanogaster insulin receptor ectodomain (dmIR-ECD) (Drosophila melanogaster) (P09208 291-1309): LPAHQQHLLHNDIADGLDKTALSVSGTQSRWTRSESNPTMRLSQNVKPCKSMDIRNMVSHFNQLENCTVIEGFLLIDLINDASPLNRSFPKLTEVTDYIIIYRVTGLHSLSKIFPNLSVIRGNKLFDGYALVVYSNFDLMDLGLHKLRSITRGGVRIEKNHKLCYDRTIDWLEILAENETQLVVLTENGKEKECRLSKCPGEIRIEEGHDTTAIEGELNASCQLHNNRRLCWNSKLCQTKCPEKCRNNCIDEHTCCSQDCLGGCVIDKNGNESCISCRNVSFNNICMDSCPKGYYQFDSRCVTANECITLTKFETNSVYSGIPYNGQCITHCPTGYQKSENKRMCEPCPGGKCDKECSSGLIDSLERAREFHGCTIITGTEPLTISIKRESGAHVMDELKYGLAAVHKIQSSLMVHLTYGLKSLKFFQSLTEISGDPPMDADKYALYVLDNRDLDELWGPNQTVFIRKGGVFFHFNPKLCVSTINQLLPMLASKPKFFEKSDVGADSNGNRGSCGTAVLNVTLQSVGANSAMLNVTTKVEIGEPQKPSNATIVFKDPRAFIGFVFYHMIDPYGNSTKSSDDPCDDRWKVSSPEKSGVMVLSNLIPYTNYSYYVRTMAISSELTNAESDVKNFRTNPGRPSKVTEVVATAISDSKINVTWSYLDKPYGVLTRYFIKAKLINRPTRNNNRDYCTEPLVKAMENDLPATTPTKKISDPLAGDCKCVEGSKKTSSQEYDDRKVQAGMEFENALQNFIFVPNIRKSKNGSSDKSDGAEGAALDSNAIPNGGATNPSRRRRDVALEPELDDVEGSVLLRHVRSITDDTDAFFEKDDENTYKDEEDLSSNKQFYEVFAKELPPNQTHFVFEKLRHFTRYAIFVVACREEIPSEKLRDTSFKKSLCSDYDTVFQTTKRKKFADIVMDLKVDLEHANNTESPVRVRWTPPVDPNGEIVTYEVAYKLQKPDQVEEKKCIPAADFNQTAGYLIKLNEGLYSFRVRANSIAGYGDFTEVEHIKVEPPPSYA
Sequence of Drosophila insulin-like peptide 2 (DILP2), synthetic two-chain hormone with the A-chain starting at GlnA5 (ligand) (Q9VT51 27-137): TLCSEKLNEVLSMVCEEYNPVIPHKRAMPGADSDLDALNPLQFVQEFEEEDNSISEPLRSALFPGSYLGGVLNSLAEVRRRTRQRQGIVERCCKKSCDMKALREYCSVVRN

stoichiometry N (DILP2 per dmIR-ECD (conformer 1)): 1 | stoichiometry N (DILP2 per dmIR-ECD (conformer 2)): 2
Substance: Drosophila insulin-like peptide 2 (DILP2), synthetic two-chain hormone with the A-chain starting at GlnA5 (ligand)
